± gives the uncertainty stated by the source.
Test: self-splicing fitness, log relative to wild type (ln ratio); higher = more splicing; Tetrahymena group I intron in knt gene, E. coli kanamycin selection, DiMSum; sequences stand for … in CUCUCU…GGAGGGAAAAGUUAUCAGGCAUGCACCUGGUAGCUAGUCUUUAAACCAAUAGAUUGCAUCGGUUUAAAAGGCAAGACCGUCAAAUUGCGGGAAAGGGGUCAACAGCCGUUCAGUACCAAGUCUCAGGGGAAACUUUGAGAUGGCCUUGCAAAGGGUAUGGUAAUAAGCUGACGGACAUGGUCCUAACCACGCAGCCAAGUCCUAAGUCAACAGAUCUUCUGUUGAUAUGGAUGCAGUUCACAGACUAAAUGUCGGUCGGGGAAGAUGUAUUCUUCUCAUAAGAUAUAGUCGGACCUCUCCUUAAUGGGAGCUAGCGGAUGAAGUGAUGCAACACUGGAGCCGCUGGGAACUAAUUUGUAUGCGAAAGUAUAUUGAUUAGUUUUGGAGUACUCGUGGUCG
Procedure, shortened: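 Colonies from six replicate transformations of E. coli BL21(DE3) were pooled and amplicon-sequenced on an Illumina HiSeq 2500. The library placed an intron with all eight P1ex-region nucleotides randomised inside the knt kanamycin-resistance gene on pET-22b(+), and cells grew overnight at 37°C or 30°C on LB agar with or without 25 μg/mL kanamycin (plus 100 μg/mL carbenicillin, 50 μM IPTG, 0.2% rhamnose). Fitness is the DiMSum error-weighted combination of wild-type-normalised replicate fold changes, kanamycin versus none.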

| Sequence | self-splicing fitness (ln) (30 °C) | self-splicing fitness (ln) (37 °C) |
| --- | --- | --- |
| AAAAAGCAAUAUUACGAAAU | -1.91 ± 0.091 | -1.01 ± 0.12 |
| AAAAAGCAAUAUUACGAAUU | -1.3 ± 0.072 | -1.13 ± 0.089 |
| AAAAAGCAAUAUUACGAUGG | -2.81 ± 0.12 | -0.923 ± 0.11 |
| AAAAAGCAAUAUUACGCAAC | -2.16 ± 0.15 | -1.99 ± 0.24 |
| AAAAAGCAAUAUUACGCCAU | -2.87 ± 0.22 | -1.71 ± 0.24 |
| AAAAAGCAAUAUUACGCGCU | -0.379 ± 0.076 | -0.358 ± 0.091 |
| AAAAAGCAAUAUUACGCUGU | -2.69 ± 0.13 | -1.69 ± 0.11 |
| AAAAAGCAAUAUUACGGACU | -0.0499 ± 0.067 | -0.0238 ± 0.083 |
| AAAAAGCAAUAUUACGGAUG | -2.17 ± 0.094 | -1.23 ± 0.095 |
| AAAAAGCAAUAUUACGGCAG | -1.32 ± 0.074 | -0.434 ± 0.095 |
| AAAAAGCAAUAUUACGGCAU | 0.0355 ± 0.061 | 0.55 ± 0.081 |
| AAAAAGCAAUAUUACGGGUA | -1.61 ± 0.11 | -0.435 ± 0.11 |
| AAAAAGCAAUAUUACGGUCG | -0.302 ± 0.062 | 0.273 ± 0.083 |
| AAAAAGCAAUAUUACGUAUU | -1.92 ± 0.077 | -1.39 ± 0.11 |
| AAAAAGCAAUAUUACGUUUA | -1.4 ± 0.1 | -0.799 ± 0.091 |
| AAACAGCAAUAUUACGAUGA | -1.34 ± 0.067 | -0.0116 ± 0.067 |
| AAACAGCAAUAUUACGCAGA | -2.53 ± 0.15 | -1.42 ± 0.11 |
| AAACAGCAAUAUUACGCGUC | -2.3 ± 0.095 | -1.78 ± 0.12 |
| AAACAGCAAUAUUACGGCCG | -1.69 ± 0.13 | -0.732 ± 0.16 |
| AAACAGCAAUAUUACGGUAG | -2.8 ± 0.12 | -2.02 ± 0.12 |
| AAACAGCAAUAUUACGUACA | -1.23 ± 0.073 | -0.0501 ± 0.082 |
| AAACAGCAAUAUUACGUAUC | -3.98 ± 0.17 | -1.97 ± 0.12 |
| AAACAGCAAUAUUACGUCAA | -2.45 ± 0.11 | -1.44 ± 0.087 |
| AAACAGCAAUAUUACGUCGA | -0.86 ± 0.065 | -0.774 ± 0.073 |
| AAACAGCAAUAUUACGUGAC | -3.5 ± 0.14 | -2.29 ± 0.13 |
| AAACAGCAAUAUUACGUGCC | -2 ± 0.1 | -1.31 ± 0.13 |

| Sequence | self-splicing fitness (ln) (30 °C) | self-splicing fitness (ln) (37 °C) |
| --- | --- | --- |
| AAACAGCAAUAUUACGUGGG | -3.64 ± 0.13 | -2.71 ± 0.11 |
| AAACAGCAAUAUUACGUGUC | -4.08 ± 0.15 | -2.78 ± 0.13 |
| AAACAGCAAUAUUACGUUCC | -2.55 ± 0.16 | -1.13 ± 0.19 |
| AAACAGCAAUAUUACGUUGC | -3.24 ± 0.11 | -3.26 ± 0.18 |
| AAAGAGCAAUAUUACGAGAU | -3.95 ± 0.17 | -3.28 ± 0.22 |
| AAAGAGCAAUAUUACGAGCU |  | -2.09 ± 0.28 |
| AAAGAGCAAUAUUACGAGUG | -3.95 ± 0.19 | -2.38 ± 0.16 |
| AAAGAGCAAUAUUACGAUAA | -3.45 ± 0.18 | -2.2 ± 0.22 |
| AAAGAGCAAUAUUACGAUCC |  | -1.6 ± 0.32 |
| AAAGAGCAAUAUUACGCACU | -1.46 ± 0.12 | -0.12 ± 0.15 |
| AAAGAGCAAUAUUACGCAGC |  | -2.77 ± 0.41 |
| AAAGAGCAAUAUUACGCCUA | -2.22 ± 0.21 | -1.81 ± 0.25 |
| AAAGAGCAAUAUUACGCGCA | -2.39 ± 0.17 | -1.5 ± 0.12 |
| AAAGAGCAAUAUUACGCGUC | -2.18 ± 0.2 | -2.6 ± 0.21 |
| AAAGAGCAAUAUUACGCGUU | -2.13 ± 0.14 | -1.32 ± 0.14 |
| AAAGAGCAAUAUUACGCUAC |  | -2.81 ± 0.32 |
| AAAGAGCAAUAUUACGCUAG | -2.87 ± 0.17 | -2.42 ± 0.27 |
| AAAGAGCAAUAUUACGCUUG | -1.67 ± 0.13 | -1.19 ± 0.18 |
| AAAGAGCAAUAUUACGGCCC | -3.78 ± 0.37 | -1.59 ± 0.34 |
| AAAGAGCAAUAUUACGGCUG | -2.36 ± 0.1 | -1.12 ± 0.12 |
| AAAGAGCAAUAUUACGGGAG | -3.34 ± 0.21 | -2.8 ± 0.27 |
| AAAGAGCAAUAUUACGUAAA | -3.11 ± 0.15 | -1.42 ± 0.13 |
| AAAGAGCAAUAUUACGUCUA | -1.12 ± 0.093 | -0.882 ± 0.093 |
| AAAGAGCAAUAUUACGUGCC | -3.09 ± 0.21 | -2.35 ± 0.22 |
| AAAGAGCAAUAUUACGUUCA | -1.03 ± 0.094 | -0.639 ± 0.097 |
| AAAGAGCAAUAUUACGUUCG | -1.54 ± 0.11 | -0.974 ± 0.15 |

| Sequence | self-splicing fitness (ln) (30 °C) | self-splicing fitness (ln) (37 °C) |
| --- | --- | --- |
| AAAGAGCAAUAUUACGUUUA | -1.71 ± 0.17 | -1.12 ± 0.21 |
| AAAUAGCAAUAUUACGAACG | -1.42 ± 0.14 | -0.384 ± 0.16 |
| AAAUAGCAAUAUUACGAAGU | -2.55 ± 0.18 | -2.16 ± 0.2 |
| AAAUAGCAAUAUUACGACAG | -2.02 ± 0.13 | -1.34 ± 0.16 |
| AAAUAGCAAUAUUACGAUAG | -3.17 ± 0.27 | -2.49 ± 0.23 |
| AAAUAGCAAUAUUACGAUGG | -2.87 ± 0.17 | -1.97 ± 0.2 |
| AAAUAGCAAUAUUACGAUUA | 0.0855 ± 0.11 | 0.0228 ± 0.096 |
| AAAUAGCAAUAUUACGAUUU | -0.479 ± 0.061 | -0.0855 ± 0.081 |
| AAAUAGCAAUAUUACGCAGC | -3.27 ± 0.33 | -0.974 ± 0.25 |
| AAAUAGCAAUAUUACGCUGA | -2.31 ± 0.16 | -1.29 ± 0.18 |
| AAAUAGCAAUAUUACGCUGC | -2.73 ± 0.2 | -1.86 ± 0.41 |
| AAAUAGCAAUAUUACGGUCA | -0.724 ± 0.069 | 0.0582 ± 0.071 |
| AAAUAGCAAUAUUACGGUCG | -0.942 ± 0.065 | -0.272 ± 0.095 |
| AAAUAGCAAUAUUACGGUGU | -2.83 ± 0.13 | -2.05 ± 0.15 |
| AAAUAGCAAUAUUACGUAAG | -1.37 ± 0.078 | -0.721 ± 0.096 |
| AAAUAGCAAUAUUACGUAAU | -3.04 ± 0.12 | -1.75 ± 0.12 |
| AAAUAGCAAUAUUACGUGCU | -0.869 ± 0.11 | -1.22 ± 0.15 |
| AAAUAGCAAUAUUACGUUGU | -4.44 ± 0.29 | -1.02 ± 0.12 |
| AACAAGCAAUAUUACGAAUU | -1.9 ± 0.091 | -0.666 ± 0.12 |
| AACAAGCAAUAUUACGACAG | -2.25 ± 0.078 | -1.76 ± 0.09 |
| AACAAGCAAUAUUACGAGAA | -2.78 ± 0.32 | -2.03 ± 0.21 |
| AACAAGCAAUAUUACGAGAC | -1.88 ± 0.11 | -2.67 ± 0.19 |
| AACAAGCAAUAUUACGAGAU | -3.08 ± 0.14 | -1.62 ± 0.12 |
| AACAAGCAAUAUUACGAGGA | -1.76 ± 0.14 | -2.42 ± 0.16 |
| AACAAGCAAUAUUACGCAAC | -3.89 ± 0.22 | -1.63 ± 0.12 |

— the supplement of paper PMC7877785
